In patent publication US20180312588A1 (KITE PHARMA, published 2018):
Substitutions are numbered along the chain they refer to. Values belong to the binder of their own block, whether it stands above or below them.

Tests used:
[1] = target: T1, human CD19 (on Raji cells, CD19+ homo sapiens Burkitt's lymphoma) (human, UniProt P15391 20-556); assay: flow cytometry titration on Raji cells, anti-His FITC; scFv at log(nM) 3.477121
T1 construct: whole, on cells; also called B-lymphocyte antigen CD19; B4
T1 sequence (looked up): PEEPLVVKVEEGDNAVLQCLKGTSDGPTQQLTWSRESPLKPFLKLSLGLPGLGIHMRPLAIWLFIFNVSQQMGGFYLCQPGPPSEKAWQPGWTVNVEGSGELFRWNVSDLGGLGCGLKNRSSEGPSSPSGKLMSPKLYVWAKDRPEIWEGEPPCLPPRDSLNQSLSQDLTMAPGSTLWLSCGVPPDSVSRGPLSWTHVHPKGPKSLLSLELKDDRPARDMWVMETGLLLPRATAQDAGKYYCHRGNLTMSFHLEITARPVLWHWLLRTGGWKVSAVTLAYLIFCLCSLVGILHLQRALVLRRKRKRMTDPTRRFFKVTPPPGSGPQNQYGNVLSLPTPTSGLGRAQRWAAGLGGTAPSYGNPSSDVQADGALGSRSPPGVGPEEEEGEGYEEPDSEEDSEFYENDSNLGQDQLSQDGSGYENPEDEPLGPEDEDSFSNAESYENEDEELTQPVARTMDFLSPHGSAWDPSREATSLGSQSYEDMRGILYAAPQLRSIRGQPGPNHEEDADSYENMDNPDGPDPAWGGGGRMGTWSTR
Method: (§1) In brief, Raji cells were cultured and harvested by centrifugation. About 3×10⁵ cells per well were washed with PBS twice and incubated in 200 μl of serial dilutions of scFvs for 30 minutes at 4° C. After washing with PBS, secondary antibody (5 μg/ml His Tag antibody [FITC]) was added to the cells and incubated for 30 minutes at 4° C. After washing with PBS, cells were analyzed for binding EC50 by using FACSCalibur™ and FlowJo software.

[2] = target: T1, human CD19 (on Raji cells, CD19+ homo …); assay: flow cytometry titration on Raji cells, anti-His FITC; scFv at log(nM) 1.568636
Method: as §1

[3] = target: T1, human CD19 (on Raji cells, CD19+ homo …); assay: flow cytometry titration on Raji cells, anti-His FITC; scFv at log(nM) 1.091515
Method: as §1

[4] = target: T1, human CD19 (on Raji cells, CD19+ homo …); assay: flow cytometry titration on Raji cells, anti-His FITC; scFv at log(nM) 2.522879
Method: as §1

[5] = target: T1, human CD19 (on Raji cells, CD19+ homo …); assay: flow cytometry titration on Raji cells, anti-His FITC; scFv at log(nM) 0.137273
Method: as §1

[6] = target: T1, human CD19 (on Raji cells, CD19+ homo …); assay: flow cytometry titration on Raji cells, anti-His FITC
Method: as §1

[7] = target: T1, human CD19 (on Raji cells, CD19+ homo …); assay: flow cytometry titration on Raji cells, anti-His FITC; scFv at log(nM) 3
Method: as §1

[8] = target: T1, human CD19 (on Raji cells, CD19+ homo …); assay: flow cytometry titration on Raji cells, anti-His FITC; scFv at log(nM) 2.045758
Method: as §1

[9] = target: T1, human CD19 (on Raji cells, CD19+ homo …); assay: flow cytometry titration on Raji cells, anti-His FITC; scFv at log(nM) 0.614394
Method: as §1

B2: SS-scFv (scFv)
scFv: DIQMTQSPSFLSASVGDRVTITCRASQDISKYLNWYQQKPDQAPKLLIKHTSRLHSGVPSRFSGSGSGTDFTFTISSLQPEDIATYYCQQGNTLPYTFGQGTKLEIKGSTSGSGKPGSGEGSTKGEVQLVESGGGLVQPGRSLRLSCTASGVSLPDYGVSWVRQPPGKGLEWIGVIWGSETTYYNSALKSRFTISRDNSKNTLYLQMNSLRAEDTAVYYCAKHYYYGGSYAMDYWGQGTLVTVSSHHHHHH
notes: leader left out here
geometric mean (FACS titration) [1]: 62
geometric mean (FACS titration) [2]: 19.3
geometric mean (FACS titration) [3]: 14.6
geometric mean (FACS titration) [4]: 60.4
geometric mean (FACS titration) [5]: 13.9
EC50 [6]: 72.8 nM
geometric mean (FACS titration) [7]: 61.7
geometric mean (FACS titration) [8]: 51.4
geometric mean (FACS titration) [9]: 13.9

B4: AS-scFv (scFv)
scFv: DIQMTQSPSTLSASVGDRVTITCRASQDISKYLNWYQQKPDQAPKLLIKHTSRLHSGVPSRFSGSGSGTDFTFTISSLQPEDIATYYCQQGNTLPYTFGQGTKLEIKGSTSGSGKPGSGEGSTKGQVQLQESGPGLVKPSGTLSLTCAVSGVSLPDYGVSWIRQPPGKGLEWIGVIWGSETTYYNSALKSRVTISRDNSKNTLYLQMNSLRAEDTAVYYCAKHYYYGGSYAMDYWGQGTLVTVSSHHHHHH
notes: leader left out here
geometric mean (FACS titration) [1]: 62.7
geometric mean (FACS titration) [2]: 19.4
geometric mean (FACS titration) [3]: 14.5
geometric mean (FACS titration) [4]: 63.9
geometric mean (FACS titration) [5]: 14.2
EC50 [6]: 53.1 nM
geometric mean (FACS titration) [7]: 62.4
geometric mean (FACS titration) [8]: 62.4
geometric mean (FACS titration) [9]: 14

Second part, the binder after the results:

geometric mean (FACS titration) [1]: 60.7
geometric mean (FACS titration) [2]: 41.2
geometric mean (FACS titration) [3]: 15.1
geometric mean (FACS titration) [4]: 61.6
geometric mean (FACS titration) [5]: 15.7
EC50 [6]: 34 nM
geometric mean (FACS titration) [7]: 61.9
geometric mean (FACS titration) [8]: 56.3
geometric mean (FACS titration) [9]: 15.5
B1: NS-scFv (scFv)
scFv: DIQMTQSPSSLSASVGDRVTITCRASQDISKYLNWYQQKPGKAVKLLIYHTSRLHSGVPSRFSGSGSGTDYTLTISSLQPEDIATYFCQQGNTLPYTFGGGTKLEIKGSTSGSGKPGSGEGSTKGQVQLQESGPGLVKPSETLSVTCTVSGVSLPDYGVSWIRQPPGKGLEWLGVIWGSETTYYNSALKSRLTISKDTSKNQVFLKMSSLTAADTAIYYCAKHYYYGGSYAMDYWGQGTLVTVSSHHHHHH
notes: leader left out here

geometric mean (FACS titration) [1]: 60.2
geometric mean (FACS titration) [2]: 25.7
geometric mean (FACS titration) [3]: 13.6
geometric mean (FACS titration) [4]: 58.9
geometric mean (FACS titration) [5]: 13.4
EC50 [6]: 66 nM
geometric mean (FACS titration) [7]: 59.7
geometric mean (FACS titration) [8]: 46.6
geometric mean (FACS titration) [9]: 13.3
B3: JS-scFv (scFv)
scFv: B2 scFv with F10S, F71Y, F73L, I83F, V162I
notes: leader left out here
